# Assay results published in patent US20040071661A1.
# Target: LCMV glycoprotein GP33-41 epitope presented by the histocompatibility molecules H-2D^b (LCMV virus; mouse (C57BL/6)) (UniProt P09991)
# Assay: cell-based or functional assay
sequence,measurement,value
"T receptor (TCR Vα2 Vβ8) specific for the GP33-41 epitope, on CD8 T lymphocytes of TCR-transgenic C57BL/6 mice","% CD44^hi effector - memory, of CD8+ TCR Vα2 T cells, 7 days after injection of H293-341-LCMV.GP particle supernatant (control H293-341: 37.6)",63.9%
same,"CD44^lo (naïve), percent of CD8+ TCR Vα2 T cells, 7 days after injection of H293-341-LCMV.GP particle supernatant (control H293-341: 57.6)",24.5%
